Results as given in PMC9122598, “NASP maintains histone H3–H4 homeostasis through two distinct H3 binding modes” (Nucleic Acids Research, 2022).
Values belong to the substance of their own block, whether it stands above or below them.

Key:
[1] = target: sNASPc dimer (human sNASP a.a. 30–340, Δ101–159; 'sNASP core') (human) (UniProt P49321); assay: SEC-MALS; single purified protein on Superdex 200 Increase 10/300 GL; 20 mM Tris pH 7.5, 0.5 M NaCl; room temperature
[2] = target: Histone H3 (MBP fusion) 116-135 (Homo sapiens) (UniProt P68431); conditions: cited from earlier work
[3] = target: frog NASP.Sc dimer (X. laevis NASP.S a.a. 23–495, Δ97–314; 'NASP.S core') (Xenopus laevis) (UniProt P06180); assay: SEC-MALS; single purified protein on Superdex 200 Increase 10/300 GL; 20 mM Tris pH 7.5, 0.5 M NaCl; room temperature

Sequence of sNASP (P49321 2-788): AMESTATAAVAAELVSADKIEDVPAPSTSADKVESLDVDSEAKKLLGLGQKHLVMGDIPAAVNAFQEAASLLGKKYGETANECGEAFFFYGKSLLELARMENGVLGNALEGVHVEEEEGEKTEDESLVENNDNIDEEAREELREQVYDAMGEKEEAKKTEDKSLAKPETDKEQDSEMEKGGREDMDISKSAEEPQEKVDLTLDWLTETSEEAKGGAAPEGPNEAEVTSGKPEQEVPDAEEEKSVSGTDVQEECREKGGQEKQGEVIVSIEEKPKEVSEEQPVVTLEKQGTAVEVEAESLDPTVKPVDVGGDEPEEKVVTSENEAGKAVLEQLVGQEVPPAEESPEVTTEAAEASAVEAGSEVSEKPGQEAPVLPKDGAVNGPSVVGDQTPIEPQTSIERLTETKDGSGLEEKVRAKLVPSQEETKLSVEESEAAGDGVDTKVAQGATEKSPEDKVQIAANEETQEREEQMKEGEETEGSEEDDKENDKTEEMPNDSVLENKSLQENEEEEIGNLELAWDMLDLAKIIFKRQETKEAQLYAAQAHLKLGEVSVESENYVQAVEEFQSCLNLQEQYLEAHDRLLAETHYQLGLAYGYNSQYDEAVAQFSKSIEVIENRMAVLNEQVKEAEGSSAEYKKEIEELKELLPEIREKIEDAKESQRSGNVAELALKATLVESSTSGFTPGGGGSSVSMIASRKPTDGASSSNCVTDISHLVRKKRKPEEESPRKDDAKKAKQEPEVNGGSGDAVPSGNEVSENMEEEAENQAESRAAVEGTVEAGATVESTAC

stoichiometry N [1]: 2
Substance: sNASPc dimer (human sNASP a.a. 30–340, Δ101–159; 'sNASP core') (from UniProt P49321-2 30-340) (domain or fragment)

Substance: sNASP (from UniProt P49321)
Kd [2]: 61 nM

stoichiometry N [3]: 2
Substance: frog NASP.Sc dimer (X. laevis NASP.S a.a. 23–495, Δ97–314; 'NASP.S core') (from UniProt P06180 23-495) (domain or fragment)
